The values that follow come from patent US7994123B2, “Hybrid proteins with ErbB4 extracellular domain and neuregulin heparin-binding domain for targeting” (Wayne State University, priority 2004, dated 2011).

Assay [1] has as its system MCF10CA1 human breast cancer cells. Briefly: Cell proliferation assay, MCF10CA1. The format is cell-based. The protocol:
(§1) Cell proliferation assays: All three breast epithelial cell lines were plated at 5000 cells/well in 48 well plates in regular MCF10A/AT or MCF10CA1 media. After incubation for 3 days, 1 nM NRG in MCF10A/AT media or just MCF10A/AT media alone were applied to the cells for another 24 hours followed by washing them with culture media and then counting cell numbers using an hemocytometer on the 4th, 5th, 6th, 7th and 8th day.
(§2) After 2 days, the Optimem I conditioned media was concentrated by Centricon at 4° C. 40 μl of IgB4 conditioned media or 10 μM of tyrosine kinase inhibitor AG1478 were combined with […] 1 nM NRG in MCF10A/AT media for 15 min at room temperature before being added to MCF10CA1 cells for 30 min treatment. […] The amount of each antagonist was determined empirically based on its ability to block NRG-induced activation of L6 cells.

For assay [2], the system named is erbB receptor phosphorylation (p185) in MCF10CA1 cells. Briefly: p185 receptor phosphorylation western blot, MCF10CA1. To be noted: exogenous NRG, 30 min; above high basal levels. Type of assay: cell-based, human. The protocol:
(§3) Western blots and L6 muscle assays: P185 receptor phosphorylation of the three cell lines was measured by phosphotyrosine western blots after NRG treatment for 30 min on 3 day old cultures as described in WO 03/012045 and Li Q & Loeb J A (2001) J Biol Chem; 276:38068-75. […] The media was discarded and phosphotyrosine western blots were performed as above. The membranes were stripped and reprobed with polyclonal rabbit erbB2 for the detection of overall erbB2 protein that was used for quantitation.
as §2
A general note: Immunoblotting shows a protein as a band on a membrane.

The test system of the next assay is MCF10A cells. Briefly: Cell proliferation assay, MCF10A. Type of assay: cell-based, human. The conditions noted are these: 1 nM NRG for 24 hours, three days after plating. The protocol: as §1
A further assay relates to MCF10AT cells. Briefly: Cell proliferation assay, MCF10AT. The conditions noted are these: 1 nM NRG for 24 hours, three days after plating. The format is cell-based, human. The protocol: as §1
In assay [3] the test system is erbB receptor phosphorylation (p185) in MCF10A cells. Briefly: p185 receptor phosphorylation western blot, MCF10A. The format is cell-based, human. To be noted: exogenous NRG, 30 min. The protocol: as §3
In assay [4] the test system is erbB receptor phosphorylation (p185) in MCF10AT cells. Nature of the assay: p185 receptor phosphorylation western blot, MCF10AT. The conditions noted are these: exogenous NRG, 30 min. Type of assay: cell-based, human. The protocol:
as §3

For assay [5], the system named is eight NRG-response proliferation genes in MCF10A cells. Nature of the assay: Northern blot of proliferation genes, MCF10A. The format is cell-based, human. The conditions noted are these: 1 nM NRG for 24 hours. The protocol:
(§4) RNA preparation and Northern blotting: MCF10A, MCF10AT and MCFCA1 cells were cultured in 25 cm flasks to approximately 60% confluence. The cells were treated with 1 nM NRG in MCF10A/AT media for 24 hours. The cells were then washed with phosphate buffered saline (PBS) once and harvested. Total RNA was extracted from cells using Ultraspec (Biotecx Laboratories, Inc.), “cleaned up” by Rneasy® purification kit (Qiagen, Valencia, Calif.), and subsequently to quantified using a fluorescent dye binding method called Ribogreen (Molecular Probes, Eugene, Oreg.). Northern blots were performed as described previously (Li & Loeb, supra) on RNA extracted from the 3 breast epithelial cell lines after NRG treatment in MCF10A/AT media verses control MCF10A/AT media. Probes were generated by PCR and then prepared by random priming to full-length cDNA clones from the clones provided by Alphagene Inc as described. The membranes were reprobed with a ^32P-labeled GAPDH probe for normalization.

Assay [6] concerns eight NRG-response proliferation genes in MCF10AT cells. Briefly: Northern blot of proliferation genes, MCF10AT. Type of assay: cell-based, human. To be noted: 1 nM NRG for 24 hours. The protocol:
as §4

The test system of assay [7] is eight NRG-response proliferation genes in MCF10CA1 cells. Briefly: Northern blot of proliferation genes, MCF10CA1. The format is cell-based, human. To be noted: 1 nM NRG for 24 hours. The protocol: as §4
The nature of a further assay: Heparin column binding. The conditions noted are these: conditioned media; anti-HA western blot of flow through and elution. The protocol:
(§5) 4. Cell culture: The L6 cells were cultured in DMEM supplemented with 10% fetal calf serum, 1 mM L-glutamine and 1000 U/ml penicillin/streptomycin at 37° C. in 10% CO2 incubator. The HEK293 cells were cultured in DMEM with 10% fetal calf serum, 1 mM L-glutamine, 2 mM sodium pyruvate, 0.1 mM non-essential amino acids, 1000 U/ml penicillin/streptomycin at 37° C. in 10% CO2 incubator. The selective antibiotics Geneticin 200 μg/ml (Gibco-Invitrogen) was added to the cell cultures of stably transfected HEK293 cells harboring the NRG antagonists. 5. Stable expression of NRG antagonists in HEK293 cells: HEK293 cells were cultured in […] flasks to 80% confluence and transfected with the four NRG antagonist constructs using lipofectamine 2000 (Invitrogen Life Science) as instructed. The antibiotic Geneticin was then added at a concentration of 400 μg/ml to the transfected HEK293 cells to select the positive antagonist transfected cells. After three weeks of Geneticin selection, the transfected HEK293 cells were diluted and plated in 96 well plates to yield single positive clones. The single clones that expressed the highest levels of antagonists (confirmed by western blot using HA antibody) were then maintained in culture media with 200 μg/ml Geneticin. Optimem I (Gibco-Invitrogen) was applied to the stably transfected NRG antagonist cell lines at 37° C. in 10% CO2 incubator for 2 days. The conditioned Optimem I media was then used in the following experiments. 6. Heparin column binding: The conditioned media containing the four NRG antagonists was passed through the heparin column to allow binding to heparin. The excessive unbound antagonist proteins were washed off by 1×PBS twice. The antagonist proteins were then eluted by increasing concentration of NaCl (0.25, 0.3, 0.4, 0.5, 0.6 and 1M). The flow through solution from each step was examined by anti-HA western blots, as described later, to determine heparin binding ability of the antagonists. 7. Purification and quantitation of recombinant proteins: The NRG antagonists were purified by anti-HA affinity matrix (3F10) (rat mAb) according to manufacturer's instructions. Briefly, the column was equilibrated with buffer containing 20 mM Tris pH 7.5, 0.1 M NaCl, 0.1 M EDTA, and each antagonist in conditioned medium was applied individually to the anti-HA affinity matrix. Excess unbound antagonist proteins were washed with 20 volume of washing buffer (20 mM Tris pH 7.5, 0.1 M NaCl, 0.1 M EDTA and 0.05% Tween 20). The bound NRG antagonists were eluted with 0.1 M glycine (pH 2). The purified recombinant protein was then quantified using a BioRad Protein Assay kit (Bio-Rad, Hercules, Calif.) 8. Silver stain: Both the conditioned media and the purified NRG antagonists were resolved on 7.5% reducing SDS-polyacrylamide gels. The gel was fixed with 30% ethanol and 10% acetic acid for 30 min. 10% ethanol and ultrapure water were used subsequently to wash the gel before staining with SilverSNAP stain solution with enhancer for 30 min. The gel was then developed using SilverSNAP developer solution with enhancer. 5% acetic acid was used to stop the reaction when the desired band intensity was reached. The gel was dried on filter paper using a vacuum gel dyer. 9. […] Positive control L6 cells were treated with 50 pM NRG alone. L6 cell lysates were prepared and run on 5% SDS-PAGE gel. Western blots of erbB receptor phosphorylation were performed using 4G10 antibody. 10. Western blot: Western blots were performed on both conditioned NRG antagonist media and the antagonist-treated L6 cells. The antagonist proteins and the L6 cells were solubilized in SDS sample buffer and boiled for 5 min as described above (see also Li et al., supra). The NRG antagonists run on 7.5% SDS-PAGE gel were detected by anti-HA mAb HA.11. Phosphotyrosine mAb 4G10 was used to detect phosphorylated erbB receptor (p185) in L6 cell western blot analysis following resolution on overrun 5% reducing SDS-polyacrylamide gels. […]

Assay [8] deals with erbB receptor phosphorylation (p185) in L6 cells. Briefly: L6 assay: block of NRG-induced erbB receptor phosphorylation (p185). Type of assay: cell-based. To be noted: preincubated with L6 muscle cells one hour, thoroughly washed before adding recombinant neuregulin. The protocol:
as §5

Assay [9] concerns Mat BIII rat breast cancer cells. Briefly: Rat syngeneic breast cancer spontaneous metastasis model. To be noted: female Fisher rats, 14-day osmotic mini-pump, about 4 mg/kg/day. Type of assay: in vivo. The protocol:
The rat syngeneic breast cancer system (Xing et al., Int. J. Cancer 67:423-429 (1996) employs Mat BIII rat breast cancer cells. Tumor cells, for example about 10^6 in 0.1 ml PBS, are inoculated into the mammary fat pads of female Fisher rats. At the time of inoculation, a 14-day Alza osmotic mini-pump is implanted intraperitoneally to dispense the test compound. The compound is dissolved in PBS (e.g., 200 mM stock), sterile filtered and placed in the minipump to achieve a release rate of about 4 mg/kg/day. Control animals receive vehicle (PBS) alone or a vehicle control peptide in the minipump. Animals are sacrificed at about day 14. In the rats treated with the active compounds of the present invention, significant reductions in the size of the primary tumor and in the number of metastases in the spleen, lungs, liver, kidney and lymph nodes (enumerated as discrete foci) are observed. Histological and immunohistochemical analysis reveal increased necrosis and signs of apoptosis in tumors in treated animals. Large necrotic areas are seen in tumor regions lacking neovascularization. […] In contrast, treatment with control polypeptides fails to cause a significant change in tumor size or metastasis.

B1: NRG: recombinant neuregulin β1 IG-EGF form provided by Amgen (protein)
chain: KKKERGSGKKPESAAGSQSPALPPRLKEMKSQESAAGSKLVLRCETSSEYSSLRFKWFKNGNELNRKNKPQNIKIQKKPGKSELRINKASLADSGEYMCKVISKLGNDSASANITIVESNEIITGMPASTEGAYVSSESPIRISVSTEGANTSSSTSTSTTGTSHLVKCAEKEKTFCVNGGECFMVKDLSNPSRYLCKCQPGFTGARCTENVPMKVQNQEKAEELYQKRVLTITGICIALLVVGIMCVVAYCKTKKQRKKLHD
Regarding B1, the “effect on growth rate of MCF10CA1 cells” value in assay [1] (1 nM NRG for 24 hours, three days after plating) is “increased the initial growth rate”. In [2], the “induction of erbB receptor phosphorylation (p185), MCF10CA1” value is reported as “only a small incremental amount of phosphorylation”. For the same molecule, in the assay on MCF10A cells, the “effect on growth rate of MCF10A cells” value is reported as “sustained reduction in the growth rate”. Moreover, the “effect on growth rate of MCF10AT cells” value in the assay with MCF10AT cells is given as “only a small, initial reduction in growth rate”. In assay [3], the “induction of erbB receptor phosphorylation (p185), MCF10A” value is reported as “induced strong erbB receptor phosphorylation”. The “induction of erbB receptor phosphorylation (p185), MCF10AT” value in assay [4] is given as “induced strong erbB receptor phosphorylation”. In addition, the “regulation of 8 NRG-response genes, MCF10A” value in assay [5] is recorded as “rapid down-regulation of all 8 of these genes”. The “regulation of 8 NRG-response genes, MCF10AT” value in assay [6] was “rapid down-regulation of all 8 of these genes”. For the same molecule, in assay [7], the “regulation of 8 NRG-response genes, MCF10CA1” value was “very little down-regulation of only a few of these genes”.

B2: GlyB4: purified HBD-S-B4 fusion with HIS tag instead of HA tag (protein)
chain: QSGYKKKERGSGKKPESAAGSQSPALPPRLKEMKSQESAAGSKLVLRCETSSEYSSLRFKWFKPNGNELNRKNKQNIKIQKKPGKSELRINKASLADSGEYMCKVISKLGNDSASANITIVESNEIITGMPASTEGAYVSSESPIRISVSTEGANTSSSTSTSTTGTSGTQSVCAGTENKLSSLSDLEQQYRALRKYYENCEVVMGNLEITSIEHNRDLSFLRSVREVTGYVLVALNQFRYLPLENLRIIRGTKLYEDRYALAIFLNYRKDGNFGLQELGLKNLTEILNGGVYVDQNKFLCYADTIHWQDIVRNPWPSNLTLVSTNGSSGCGRCHKSCTGRCWGPTENHCQTLTRTVCAEQCDGRCYGPYVSDCCHRECAGGCSGPKDTDCFACMNFNDSGACVTQCPQTFVYNPTTFQLEHNFNAKYTYGAFCVKKCPHNFVVDSSSCVRACPSSKMEVEENGIKMCKPCTDICPKACDGIGTGSLMSAQTVDSSNIDKFINCTKINGNLIFLVTGIHGDPYNAIEAIDPEKLNVFRTVREITGFLNIQSWPPNMTDFSVFSNLVTIGGRVLYSGLSLLILKQQGITSLQFQSLKEISAGNIYITDNSNLCYYHTINWTTLFSTINQRIVIRDNRKAENCTAEGMVCNHLCSSDGCWGPGPDQCLSCRRFSRGRICIESCNLYDGEFREFENGSICVECDPQCEKMEDGLLTCHGPGPDNCTKCSHFKDGPNCVEKCPDGLQGANSFIFKYADPDRECHPCHPNCTQGCNGPTSHDCIYYPWTGHSTLPQHAKN
modifications: left off: small tags and cut ends
B2: the “binding to heparin column” value in “Heparin column binding” was “binds to heparin”. Moreover, in [8], the “sustained blockade of neuregulin signaling (p185 phosphorylation)” value was “complete and sustained blockade of neuregulin signaling”. For the same molecule, the “effectiveness at blocking proliferation compared with Herceptin” value in assay [1] (1 nM GlyB4 versus Herceptin 100 μg/ml) was “comparably, if not slightly more, effective”. Further, the “blocking of cancer cell growth” value in assay [1] (1 nM, treated on days 0, 3 and 6, compared to control cells or cells treated with B4) is “significantly more potent at blocking cancer cell growth”. Moreover, the “potency relative to control polypeptides” value in assay [9] was “at least two-fold more potent than the relevant control polypeptides”.
